Measurements published in the Human Domainome abundance scans (Beltran et al. 2025).

B1: Activity-dependent neuroprotector homeobox protein, residues 770 to 810; numbered along this chain, Q9H2P0 (parent)
chain: FLTKYFNKQPYPTRREIEKLAASLWLWKSDIASHFSNKRKK
B2: Homeobox protein cut-like 1, residues 548 to 629; numbered along this chain, P39880 (parent)
chain: GEEMDTAEIARQVKEQLIKHNIGQRIFGHYVLGLSQGSVSEILARPKPWNKLTVRGKEPFHKMKQFLSDEQNILALRSIQGR

Variants of: B1
Assay: abundance fitness (aPCA) (normalised: wild type 0, dead -1); higher = more abundant; growth selection in yeast, the domain comes from the species named
Conditions: Homo sapiens

Abundance fitness of substitutions, site by site:
I17: E -0.61
Q9: P -0.698
F35: C -0.347
R39: V -0.185
E18: M 0.075
S29: E -0.294
Y11: M 0.058
W27: P -0.398
L20: I -0.005
T3: Q -0.164
W25: D -0.159

Variants of: B2
Assay: as above
Conditions: Homo sapiens

Abundance fitness: each site, then its substitutions
H20: S -0.398, G -0.584, P -0.677, T -0.608, K -0.391, W -0.074, D -0.722, L -0.361, A -0.348, V -0.6, N -0.178, I -0.601, E -0.503, F -0.029, C -0.466, R -0.464
L17: D -0.774, C -0.493, H -0.939, Y -0.842, R -0.609, P -0.538, Q -0.612, N -0.696, F -0.808, A -0.724, S -0.635, I -0.358, E -0.613, M -0.405, V -0.665, W -0.808, T -0.518
K14: A -0.324, R -0.111, E -0.282, L -0.401, I -0.24, H 0.1, D -0.343, C -0.263, T -0.396, S 0.565, N -0.058
I18: S 0.014, G -0.105, Y 0.008, A 0.007, L -0.031, E 0.064, Q 0.084, N 0.012, F 0.085, C 0.014, K 0.075, W -0.13, M -0.005, H -0.052, V 0
K19: H 0.029, R -0.117, A -0.171, W -0.618, V -0.271, N -0.216, E -0.26, D -0.344, P -0.763, Q -0.18, C -0.363, M -0.293, L -0.201, I -0.244, G -0.513, Y -0.242, F -0.187
M4: G -0.523, R -0.517, K -0.36, C -0.677, L 0.002, S -0.355, E -0.191, T -0.204, N -0.331, I 0.101, H -0.304, Q -0.2, Y -0.203, P -0.318, F -0.244, D -0.304, A -0.432, W -0.23
G1: V -0.01, C -0.026, H -0.289, F -0.104, Q -0.051, L -0.03, A -0.064, M 0.038, W -0.172, T -0.035, E -0.036, P -0.044, D 0.029, R -0.041, Y 0.075, S -0.004, K -0.035, N -0.012, I 0.049
N21: T -0.305, G 0.025, H 0.009, F -0.534, Q -0.021, I -1.06, W -0.759, D -0.03, A -0.151, S -0.084, R -0.115, Y -0.469, V -0.518, E -0.04, K -0.055, M -0.378, P -0.72, C -0.181
E3: L -0.107, S -0.118, K -0.064, C -0.142, F 0.1, I -0.081, W -0.017, D 0.001, P -0.137, V -0.098, Y -0.091, N -0.119, H -0.027, Q -0.089, A -0.064, T -0.057, M -0.101, G -0.155, R -0.145
A7: R -0.093, F -0.053, W -0.143, S -0.09, L -0.082, D -0.136, G -0.17, C -0.081, Q -0.028, Y -0.093, P -0.532, E -0.029, K -0.003, V -0.121, M -0.107, H 0.01
T6: A -0.697, G -0.946, C -0.66, D -0.859, E -0.921, K -0.81, P -0.385, V -0.839, I -1.14, Y -0.901, M -1.01, F -0.822, W -0.884, L -1.02, R -0.896, S -0.468
D5: P -0.269, W -0.782, A -0.204, H -0.294, T -0.006, Q -0.226, S -0.082, F -0.644, K -0.274, E -0.163, Y -0.561, L -0.817, N -0.076, M -0.638, G -0.395, V -0.537, I -0.689, R -0.541
E15: Q -0.077, F -0.363, V -0.19, A -0.023, L -0.03, Y -0.091, G -0.332, S 0.034, K -0.573, T -0.143, R -0.207, C 0.094, D -0.211, I -0.003, N -0.328
E8: F -0.22, I -0.22, M -0.149, Q -0.104, S -0.119, P -0.979, T -0.118, L -0.091, H -0.135, D -0.032, R -0.17, V -0.135, G -0.233, N -0.211, C -0.219, W -0.231, K -0.113, A -0.118
E2: V -0.17, A -0.121, Y -0.175, T -0.117, K -0.116, W -0.202, Q -0.126, G -0.145, P -0.478, C -0.137, L -0.193, D -0.154, R -0.188, H -0.256, I -0.261, S -0.087, F -0.107
A10: W -0.755, K -0.746, Y -0.863, D -0.835, E -0.822, M -0.947, H -1.24, I -0.249, R -0.792, Q -0.798, N -0.692, V 0.032, L -0.874, P -0.744, T -0.08, G -0.552, S -0.151
V13: S -0.56, A -0.415, I -0.102, R -0.586, L -0.423, K -0.548, H -0.574, T -0.198, C -0.238, Y -0.812, G -0.53, Q -0.574, W -0.721, D -0.486, F -0.911, M -0.263, N -0.511, E -0.608, P -0.564
I9: F -0.547, H -0.56, L -0.13, P -0.605, V -0.103, C -0.459, E -0.517, Q -0.583, W -0.82, R -0.69, A -0.695, M -0.292, S -0.672, Y -0.495, K -0.508, G -0.623, N -0.643, D -0.428, T -0.267
I22: D -0.941, C -0.491
R11: Q -0.24, C -0.327, H -0.102, Y -0.249, W -0.506, F -0.243, G -0.18, N -0.205, D -0.274, K 0.069, V -0.311, A -0.157, M -0.112, P -0.646, T -0.131
Q16: H -0.113
